# Earlier results in PMC10466379.
# Key:
# Experiment in all cases: not stated (values taken from the PKAD database; the article says PKAD values come mainly from NMR or IR titrations)
# Conditions in all cases: not stated (the curated set excludes proteins with ligands, nucleic acids and structural metal ions)
# Glu118 = Glu118 (UniProt position 200, YVYKPENTHEQ)
# Glu37 = Glu37 (UniProt position 119, MTFRLELVDTP)
# Glu132 = Glu132 (UniProt position 214, KSEAQEKKEKL)
# Glu100 = Glu100 (UniProt position 182, DGKMVEEALVR)
# Glu62 = Glu62 (UniProt position 144, EASAFEKKMVE)
# Glu23 = Glu23 (UniProt position 105, IDGDTEKLMYK)
# Glu41 = Glu41 (UniProt position 123, LLLVDEPETKH)
# Glu34 = Glu34 (UniProt position 116, GQPMTERLLLV)
# Glu91 = Glu91 (UniProt position 173, GRGLAEIYADG)
# Glu25 = Glu25 (UniProt position 107, GDTVKEMYKGQ)
# Glu72 = Glu72 (UniProt position 154, ENAKKEEVEFD)
# Glu38 = Glu38 (UniProt position 120, TFRLLEVDTPE)
# Glu90 = Glu90 (UniProt position 172, YGRGLEYIYAD)
# Glu20 = Glu20 (UniProt position 102, IKAIDEDTVKL)
substance,measurement,setting,value
staphylococcal nuclease variant N118E (parent PDB 2LKV) (Staphylococcus aureus (inferred from PDB 2LKV; not stated in the article); N118E),pKa,Glu118,4.5
staphylococcal nuclease variant L37E (parent PDB 2LKV) (Staphylococcus aureus (inferred from PDB 2LKV; not stated in the article); L37E),pKa,Glu37,5.2
staphylococcal nuclease variant A132E (parent PDB 2LKV) (Staphylococcus aureus (inferred from PDB 2LKV; not stated in the article); A132E),pKa,Glu132,7
staphylococcal nuclease variant N100E (parent PDB 2LKV) (Staphylococcus aureus (inferred from PDB 2LKV; not stated in the article); N100E),pKa,Glu100,7.6
staphylococcal nuclease variant T62E (parent PDB 2LKV) (Staphylococcus aureus (inferred from PDB 2LKV; not stated in the article); T62E),pKa,Glu62,7.7
staphylococcal nuclease variant V23E (parent PDB 2LKV) (Staphylococcus aureus (inferred from PDB 2LKV; not stated in the article); V23E),pKa,Glu23,7.1
staphylococcal nuclease variant T41E (parent PDB 2LKV) (Staphylococcus aureus (inferred from PDB 2LKV; not stated in the article); T41E),pKa,Glu41,6.8
staphylococcal nuclease variant F34E (parent PDB 2LKV) (Staphylococcus aureus (inferred from PDB 2LKV; not stated in the article); F34E),pKa,Glu34,7.3
staphylococcal nuclease variant Y91E (parent PDB 2LKV) (Staphylococcus aureus (inferred from PDB 2LKV; not stated in the article); Y91E),pKa,Glu91,7.1
staphylococcal nuclease variant L25E (parent PDB 2LKV) (Staphylococcus aureus (inferred from PDB 2LKV; not stated in the article); L25E),pKa,Glu25,7.5
staphylococcal nuclease variant I72E (parent PDB 2LKV) (Staphylococcus aureus (inferred from PDB 2LKV; not stated in the article); I72E),pKa,Glu72,7.3
staphylococcal nuclease variant L38E (parent PDB 2LKV) (Staphylococcus aureus (inferred from PDB 2LKV; not stated in the article); L38E),pKa,Glu38,6.8
staphylococcal nuclease variant A90E (parent PDB 2LKV) (Staphylococcus aureus (inferred from PDB 2LKV; not stated in the article); A90E),pKa,Glu90,6.4
staphylococcal nuclease variant G20E (parent PDB 2LKV) (Staphylococcus aureus (inferred from PDB 2LKV; not stated in the article); G20E),pKa,Glu20,4.5
